This is an account of results in publication PMC9865144, “Crystal Structure of the SH3 Domain of ASAP1 in Complex with the Proline Rich Motif (PRM) of MICAL1 Reveals a Unique SH3/PRM Interaction Mode” (International Journal of Molecular Sciences, 2023).

For one assay, the target named is APC PRM (Homo sapiens) (UniProt P25054). The conditions noted are these: cited from earlier work.
In assay [1] the target is T1, ASAP1-SH3 (residue 1087–1147) (mouse, UniProt Q9QWY8 1087-1147).
T1 chain: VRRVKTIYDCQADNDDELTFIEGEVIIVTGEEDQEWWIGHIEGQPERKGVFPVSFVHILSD
Briefly: ITC. A general note: In ITC the heat of successive injections is recorded.

Assay [2] addresses T2, ASAP1-SH3 (residue 1087–1147), Q9QWY8.
T2 chain: T1 chain
Nature of the assay: ITC. The conditions noted are these: chain shown with the change.

The next assay has as its target T3, MICAL1 (Homo sapiens (Human), UniProt Q8TDZ2).
T3 chain: EPPPKPPRSCSALAR
Briefly: ITC, Trx fusions.

The target of another assay is T4, FYB1 (Homo sapiens (Human), UniProt O15117).
T4 chain: TLGPPPPKPNRPPNV
Briefly: ITC, Trx fusions.

The next assay has as its target T5, FAK1 (Homo sapiens (Human), UniProt Q05397).
T5 chain: EAPPKPSRPGYPSPR
Briefly: ITC, Trx fusions.

For assay [3], the target named is T1, ASAP1-SH3 (residue 1087–1147). Nature of the assay: ITC.
Assay [4] deals with T6, GRAF2-SH3 (residue 728–786) (human, UniProt A1A4S6 728-786).
T6 chain: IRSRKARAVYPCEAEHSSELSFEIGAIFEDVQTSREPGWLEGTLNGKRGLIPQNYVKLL
Briefly: ITC.

Assay [5] has as its target T7, SKAP1-SH3 (residue 294–355) (human, UniProt Q86WV1 294-355).
T7 chain: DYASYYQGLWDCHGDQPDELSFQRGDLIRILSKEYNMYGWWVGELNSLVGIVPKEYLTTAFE
Briefly: ITC.

The next assay has as its target T8, MICAL1-PRM, Q8TDZ2.
T8 chain: EPPPKPPRSCSALAR
Nature of the assay: ITC. The conditions noted are these: chain shown with the change.

Assay [6] deals with ASAP1-SH3 (residue 1087–1147) (mouse) (UniProt Q9QWY8). Nature of the assay: ITC; PEAQ-ITC; 400 μM in the syringe, 40 μM in the cell; 50 mM Tris pH 7.5, 100 mM NaCl, 1 mM DTT, 1 mM EDTA; one-site binding model.
Assay [7] addresses T9, GRAF2-SH3 (residue 728–786) (human, UniProt A1A4S6 728-786).
T9 construct: GRAF2 (GTPase Regulator associated with focal adhesion kinase 2), human, SH3 domain, residue 728-786; also called SH3^AGS of GRAF2; source: E. coli BL21(DE3), purified (Ni-NTA, Superdex-200 gel filtration)
T9 sequence (looked up): T6 chain
Described as above. As to conditions: both partners purified.

In assay [8] the target is T10, SKAP1-SH3 (residue 294–355) (human, UniProt Q86WV1 294-355).
T10 construct: SKAP1 (Src kinase associated phosphoprotein 1), human, SH3 domain, residue 294-355; also called SH3^AGS of SKAP1; source: E. coli BL21(DE3), purified (Ni-NTA, Superdex-200 gel filtration)
T10 sequence (looked up): T7 chain
Described as above. As to conditions: both partners purified.

The target of assay [9] is T11, ASAP1-SH3 (residue 1087–1147) (mouse, UniProt Q9QWY8 1087-1147).
T11 construct: ASAP1, mouse, SH3 domain, residue 1087-1147; The Trx-His6 tag is followed by a 3C protease cleavage site; The limits are stated for the crystallisation; also called SH3 domain of ASAP1; source: E. coli BL21(DE3), purified (Ni-NTA, Superdex-200 gel filtration)
T11 sequence (looked up): T1 chain
The description is as above. As to conditions: both partners purified.

Numbering of substitutions follows the chain as printed. Names and notes keep the numbering of the source. Read-outs that look alike come from different tables or passages of the source.

Turning to ASAP1 SH3 (from UniProt Q9ULH1), the Kd (commonly a measure of binding affinity in units of concentration) in the assay with APC PRM (Homo sapiens) was 24 µM.

B1: MICAL1-loop3 (domain or fragment)
chain: AEGSDRGPESPELPTPSENSMPPGLSTPTASQEGAGPVPDPSQPTRRQIRLSSPERQRLSSLNLTPDPEMEPPPKPPRSCSALARHALESSFVGWGLPVQSPQALVAMEKEEKESPFSSEEEEEDVPLDSDVEQALQTFAKTSGTMNNYPTWRRTLLRRA
In assay [1], B1 showed a Kd of 1.1 µM.

B2: MICAL1-PRM, Q8TDZ2 K832R (peptide)
chain: EPPPRPPRSCSALAR
For the molecule B2, the Kd in assay [2] was found to be 0.35 µM.

B3: GRAF2_SH3 (protein)
chain: T6 chain
Consider B3, for which the Kd was 1.33 µM with MICAL1, 3.14 µM with FYB1 and 6.06 µM with FAK1.

B4: SKAP1_SH3 (protein)
chain: T7 chain
On to B4, for which the figures for the Kd in the assay with MICAL1, with FYB1 and with FAK1 were 5.99 µM, 0.29 µM and 7.08 µM, respectively.

B5: FYB1-PRM (residue 362–376) (peptide)
chain: RPPNVDLTKFHKTSS
Turning to B5, the Kd in assay [3] was found to be 7.59 µM; in assay [4], 3.14 µM; in [5] it was 0.29 µM.

B6: ASAP1-SH3 (residue 1087–1147), Q9QWY8 D1099K (protein)
chain: T1 chain with D13K
In the case of B6, the Kd in the assay with MICAL1-PRM, Q8TDZ2 is 109 µM.

B7: ASAP1_SH3 (protein)
chain: T1 chain
B7: the Kd with MICAL1 came to 0.82 µM; in the assay with FYB1, 7.59 µM; with FAK1, 1.97 µM.

B8: ASAP1-SH3 (residue 1087–1147), Q9QWY8 C1096F (protein)
chain: T1 chain with C10F
For B8, the Kd in the assay with MICAL1-PRM, Q8TDZ2 came out at 15.7 µM.

B9: MICAL1-PRM (peptide)
chain: EPPPKPPRSCSALAR
As to B9, the Kd was found to be 0.8 µM in assay [1] and 1 µM in assay [6].

B10: MICAL1-PRM, Q8TDZ2 K832P (peptide)
chain: EPPPPPPRSCSALAR
In turn, B10 displayed a Kd in assay [2] of 17 µM.

B11: FAK1-PRM (residue 710–724) (peptide, UniProt Q05397 710-724, looked up)
chain: EAPPKPSRPGYPSPR
notes: FAK1, human, proline rich motif, residue 710-724; also called PRM^Px+P from FAK1; source: E. coli BL21(DE3), purified (Ni-NTA, Superdex-200 gel filtration)
B11: the binding result in assay [7], in [8] and in assay [9] was “binds” throughout.
